The subject of the data set is Saccharomyces cerevisiae. Kind of data set: protein stability index of tFT-peptide fusion (C-terminal peptide) (PSI (0-1 scale)); higher = more stable (slower turnover). To be noted: temperature: 30 C. As for the experimental part: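 MPS profiling in S. cerevisiae of the yeast C-terminome library: the last 12 aa of each annotated ORF are fused to the C-terminus of a sfGFP-mCherry timer, after a GGGS linker. Cells are FACS-sorted into 8 mCherry/sfGFP bins and deep-sequenced. PSI runs from 0 (unstable) to 1 (stable); wild type and das1Δ backgrounds, two technical replicates each.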

[1] abbreviates: genetic background: das1 deletion.

± gives the standard deviation of the averaged measurements.

Regarding RVPKKNGKLSKK [PDR5 C-terminal 12 aa], the protein stability index was 0.7012 ± 0.0033 under setting [1] and 0.704 ± 0.055 (genetic background: wild type).

On to RYRNQIDDFDFS [IMP3 C-terminal 12 aa], for which the protein stability index is, setting by setting: under setting [1], 0.71 ± 0.034; (genetic background: wild type) 0.754 ± 0.097.

With SAAIGAQSGLYI [PBA1 C-terminal 12 aa], the protein stability index was 0.671 ± 0.021 under setting [1] and 0.67 ± 0.0091 (genetic background: wild type).

On to SCQRILQELEKP [CAK1 C-terminal 12 aa], for which the protein stability index stood at 0.689 ± 0.0094 under setting [1] and 0.705 ± 0.055 (genetic background: wild type).

As to SDILKYILLGSN [SNF4 C-terminal 12 aa], the protein stability index came to 0.683 ± 0.0085 under setting [1] and 0.6783 ± 0.0061 (genetic background: wild type).

As to SDVAKQLASFGY [RPL16B C-terminal 12 aa], the protein stability index was found to be 0.7021 ± 0.0051 under setting [1] and 0.6663 ± 0.00093 (genetic background: wild type).

With SEEKSNLIEFEA [MDR1 C-terminal 12 aa], the protein stability index is, setting by setting: under setting [1], 0.705 ± 0.013; (genetic background: wild type) 0.6734 ± 0.0028.

Take SEFPTCCDQAAI [SLZ1 C-terminal 12 aa]: the protein stability index runs as follows: under setting [1], 0.707 ± 0.01; (genetic background: wild type) 0.721 ± 0.0094.

Take SGGFGGSGSGFI [FUB1 C-terminal 12 aa]: the protein stability index is, setting by setting: under setting [1], 0.6972 ± 0.0036; (genetic background: wild type) 0.691 ± 0.013.

Take “SGLIIAEAGIGG [YAL031W-A C-terminal 12 aa]”: the protein stability index was 0.7001 ± 0.005 under setting [1] and 0.7129 ± 0.0038 (genetic background: wild type).

Consider SGVGAALCALVA [EMI2 C-terminal 12 aa], for which the protein stability index by setting is: under setting [1], 0.583 ± 0.0075; (genetic background: wild type) 0.602 ± 0.025.

Consider SGYSFNGSYGKS [WHI4 C-terminal 12 aa], for which the protein stability index was found to be 0.671 ± 0.0029 under setting [1] and 0.659 ± 0.022 (genetic background: wild type).

SHLFFQLSCSLY [YLL044W C-terminal 12 aa]: the protein stability index is 0.685 ± 0.038 under setting [1] and 0.736 ± 0.069 (genetic background: wild type).

Turning to SIDETELAKWNE [PEP3 C-terminal 12 aa], the protein stability index by setting is: under setting [1], 0.734 ± 0.063; (genetic background: wild type) 0.7 ± 0.048.

Take SIGLTNLFLYRV [YDR010C C-terminal 12 aa]: the protein stability index is 0.715 ± 0.0083 under setting [1] and 0.681 ± 0.01 (genetic background: wild type).

Consider SIRKKSKYAYAA [TPO1 C-terminal 12 aa], for which the protein stability index by setting is: under setting [1], 0.703 ± 0.012; (genetic background: wild type) 0.642 ± 0.021.

Regarding SKASLINKLIGN [NTR2 C-terminal 12 aa], the protein stability index under setting [1] was 0.685 ± 0.011 and the protein stability index (genetic background: wild type) is 0.7 ± 0.013.

For SKLNNGEIIVID [SRS2 C-terminal 12 aa], the protein stability index is, setting by setting: under setting [1], 0.685 ± 0.0081; (genetic background: wild type) 0.702 ± 0.047.

Turning to SKNILSFFTRKK [RAD30 C-terminal 12 aa], the protein stability index reads like this: under setting [1], 0.774 ± 0.025; (genetic background: wild type) 0.673 ± 0.0077.

Consider SKNVPALHMGGL [PBS2 C-terminal 12 aa], for which the protein stability index reads like this: under setting [1], 0.6847 ± 0.0027; (genetic background: wild type) 0.6721 ± 0.0054.

Take SKPALGSCLYEL [GAL1 C-terminal 12 aa]: the protein stability index runs as follows: under setting [1], 0.6989 ± 0.0023; (genetic background: wild type) 0.687 ± 0.012.

As for SLGGDVHSRRCS [ROQ1 C-terminal 12 aa], the protein stability index runs as follows: under setting [1], 0.7013 ± 0.0028; (genetic background: wild type) 0.662 ± 0.018.

SLKTFINDVLSF [SLS1 C-terminal 12 aa]: the protein stability index is 0.7066 ± 0.0021 under setting [1] and 0.717 ± 0.029 (genetic background: wild type).

Consider SLLVEDGGNPTA [YPL150W C-terminal 12 aa], for which the protein stability index was found to be 0.695 ± 0.007 under setting [1] and 0.69 ± 0.026 (genetic background: wild type).

As for SLMIFSSFFLYN [YOR139C C-terminal 12 aa], the protein stability index came out at 0.6872 ± 0.001 under setting [1] and 0.479 ± 0.02 (genetic background: wild type).

In turn, SLRGCKSVFRRI [HMI1 C-terminal 12 aa] showed a protein stability index under setting [1] of 0.663 ± 0.0076 and a protein stability index (genetic background: wild type) of 0.741 ± 0.029.

Turning to SLSTFPFVYKYL [EST3 C-terminal 12 aa], the protein stability index by setting is: under setting [1], 0.749 ± 0.019; (genetic background: wild type) 0.127 ± 0.0095.

As to SNEHSSENTAGP [STE3 C-terminal 12 aa], the protein stability index by setting is: under setting [1], 0.696 ± 0.013; (genetic background: wild type) 0.684 ± 0.014.

SNLALAGGAFRP [TAF5 C-terminal 12 aa]: the protein stability index by setting is: under setting [1], 0.711 ± 0.0013; (genetic background: wild type) 0.688 ± 0.016.

For the sequence SPEIDDSSLACH [CTR2 C-terminal 12 aa], the protein stability index runs as follows: under setting [1], 0.707 ± 0.0085; (genetic background: wild type) 0.6821 ± 0.0044.

With SQMRPPSQGDKI [DAL82 C-terminal 12 aa], the protein stability index by setting is: under setting [1], 0.714 ± 0.024; (genetic background: wild type) 0.675 ± 0.023.

For SQMTKKRKTKKE [APN1 C-terminal 12 aa], the protein stability index under setting [1] came out at 0.72 ± 0.015 and the protein stability index (genetic background: wild type) is 0.786 ± 0.064.

In the case of SQNGHTSGSENI [LSP1 C-terminal 12 aa], the protein stability index reads like this: under setting [1], 0.6941 ± 0.005; (genetic background: wild type) 0.699 ± 0.03.

SQSFNPLESVQE [YPL229W C-terminal 12 aa]: the protein stability index worked out at 0.7038 ± 0.0039 under setting [1] and 0.709 ± 0.1 (genetic background: wild type).

For the sequence SRIKNACLHRMN [RRN7 C-terminal 12 aa], the protein stability index came to 0.6966 ± 0.0047 under setting [1] and 0.681 ± 0.035 (genetic background: wild type).

Regarding SRVYAYYLTHEK [NNT1 C-terminal 12 aa], the protein stability index is, setting by setting: under setting [1], 0.666 ± 0.007; (genetic background: wild type) 0.67 ± 0.018.

Consider SSFEKFQYYSKA [AGP2 C-terminal 12 aa], for which the protein stability index runs as follows: under setting [1], 0.72 ± 0.024; (genetic background: wild type) 0.688 ± 0.049.

In the case of SSLMVIHPLDDT [MID1 C-terminal 12 aa], the protein stability index is 0.6918 ± 0.0012 under setting [1] and 0.695 ± 0.006 (genetic background: wild type).

As for SSSYNYNVHKLA [YDR278C C-terminal 12 aa], the protein stability index is 0.6925 ± 0.0039 under setting [1] and 0.134 ± 0.013 (genetic background: wild type).

For the sequence STDEKRLVMSLK [IMH1 C-terminal 12 aa], the protein stability index is, setting by setting: under setting [1], 0.692 ± 0.042; (genetic background: wild type) 0.709 ± 0.014.

Regarding STDEKTSENETL [YPR071W C-terminal 12 aa], the protein stability index runs as follows: under setting [1], 0.6746 ± 0.0056; (genetic background: wild type) 0.656 ± 0.024.

As for STICRDIILIPN [CHK1 C-terminal 12 aa], the protein stability index runs as follows: under setting [1], 0.688 ± 0.03; (genetic background: wild type) 0.6527 ± 0.0013.

In the case of STKFEEDQVAPL [ICP55 C-terminal 12 aa], the protein stability index runs as follows: under setting [1], 0.679 ± 0.007; (genetic background: wild type) 0.686 ± 0.029.

As to STSDSENFMQQH [RPI1 C-terminal 12 aa], the protein stability index runs as follows: under setting [1], 0.705 ± 0.013; (genetic background: wild type) 0.729 ± 0.049.

For SVFIASLLLAII [FLO1 C-terminal 12 aa], the protein stability index was 0.31 ± 0.0059 under setting [1] and 0.323 ± 0.021 (genetic background: wild type).

Take SVLTGGAVWMLF [DFG5 C-terminal 12 aa]: the protein stability index is, setting by setting: under setting [1], 0.7186 ± 0.0037; (genetic background: wild type) 0.652 ± 0.013.

On to TAIAHRAYIQLK [RSM7 C-terminal 12 aa], for which the protein stability index was 0.709 ± 0.035 under setting [1] and 0.685 ± 0.033 (genetic background: wild type).

For the sequence TALLIDNILTCK [MRM1 C-terminal 12 aa], the protein stability index runs as follows: under setting [1], 0.7 ± 0.021; (genetic background: wild type) 0.694 ± 0.048.

Regarding TALLVSYCHLCV [YMR122C C-terminal 12 aa], the protein stability index runs as follows: under setting [1], 0.625 ± 0.0077; (genetic background: wild type) 0.6243 ± 0.0048.

For the sequence TAREKKNEMFSF [YCL023C C-terminal 12 aa], the protein stability index came out at 0.69596 ± 0.00065 under setting [1] and 0.711 ± 0.06 (genetic background: wild type).

The values above are taken from the supplement of paper PMC10724198.
